{"source": "paper PMC11887224", "binders": {"B1": {"name": "TRPFL (structured_DNA)", "DNA": "CTACGGTGCCTTGAAGTGACTCGTTCCGTCCCTGGCCGCTCCTACTATCGATGTGTCATAGCAGGTCACTTCCAGG"}}, "target": "Trop-2 (recombinant, His-tagged) (UniProt P09758 27-274)", "sequence (P09758 27-274)": "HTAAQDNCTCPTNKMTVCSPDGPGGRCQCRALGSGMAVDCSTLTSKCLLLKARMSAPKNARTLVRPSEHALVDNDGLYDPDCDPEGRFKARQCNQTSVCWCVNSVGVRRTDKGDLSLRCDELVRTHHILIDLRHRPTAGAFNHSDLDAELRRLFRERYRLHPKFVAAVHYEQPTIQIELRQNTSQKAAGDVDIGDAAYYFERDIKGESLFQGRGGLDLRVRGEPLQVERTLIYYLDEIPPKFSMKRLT", "experiment": "SPR"}
{"binder": "B1", "values": [{"measurement": "Kd", "result": 110, "unit": "nM"}]}
